# Measured values: PMC5983490, “White-rot basidiomycetes Junghuhnia nitida and Steccherinum bourdotii: Oxidative potential and laccase properties in comparison with Trametes hirsuta and Coriolopsis caperata” (PLoS ONE, 2018)
# Read-outs that look alike come from different tables or passages of the source.
# B1: CcL (Coriolopsis caperata laccase) (Cerrena caperata) (protein)
# chain: GIGPVTDLTISDGPVSPDGFTRQAILVNNQFPSPLITGNKGDRFQLNVIDNMNNHTMLKSTSIHWHGFFQHGTNWADGPAFVNQCPISPGHSFLYDFQVPDQAGTFWYHSHLSTQYCDGLRGPIVVYDPQDPHKDLYDVDDDSTVITLADWYHLAAKVGPAVPTADATLINGLGRSISTLNADLAVISVTKGKRYRFRLVSLSCDPNHTFSIDGHTMTVIEADSVNLKPQVVDSIQIFAAQRYSFVLNADQDIGNYWIRAMPNSGTRNFDGGVNSAILRYDGADPVEPTTTQTPSSQPLVESALTTLEGTAAPGSPTAGGVDLAINMAFGFAGGRFTINGASFTPPTVPVLLQILSGAQNAQDLLPTGSVYSLPANADIEISLPATAAAPGFPHPFHLHGHTFAVVRSAGSSTYNYANPVYRDVVSTGSPGDNVTIRFRTDNPGPWFLHCHIDFHLEAGFAVVMAEDIPDVAAVNPVPQAWSDLCPTYNALDPNDQ
# B2: ThL (Trametes hirsuta laccase) (Trametes hirsuta) (protein)
# chain: AVGPVADLTITDAAVSPDGFSRQAVVVNGVTPGPLVAGNIGDRFQLNVIDNLTNHTMLKSTSIHWHGFFQHGTNWADGPAFINQCPISPGHSFLYDFQVPDQAGTFWYHSHLSTQYCDGLRGPFVVYDPNDPHASRYDVDNDDTVITLADWYHTAAKLGPRFPGGADATLINGKGRAPSDSPAELSVIKVTKGKRYRFRLVSLSCNPNHTFSIDGHNLTIIEVDSVNSQPLEVDSIQIFAAQRYSFVLDANQAVDNYWIRANPNFGNVGFDGGINSAILRYDGAPAVEPTTNQTTSVKPLNEVDLHPLVSTPVPGSPSSGGVDKAINMAFNFNGSNFFINGASFVPPTVPVLLQILSGAQTAQDLLPSGSVYVLPSNASIEISFPATAAAPGAPHPFHLHGHTFAVVRSAGSTVYNYDNPIFRDVVSTGTPAAGDNVTIRFDTNNPGPWFLHCHIDFHLEGGFAVVMAEDTPDVKAVNPVPQAWSDLCPTYDALDPNDQ
# Legend:
# [1] = test system: T1, JnL (Junghuhnia nitida laccase); test: oxygen consumption, Clark-type electrode, non-linear fit; assay type: biochemical; details: 0.1 M citrate-phosphate buffer pH 4.5, 25 °C; read-out: Steccherinaceae group / JnL
# T1 construct: peptides most similar to S. murashkinskyi laccase 2 / A. faginea laccase A
# Text: oxygen consumption, Clark-type electrode, non-linear fit on JnL (Junghuhnia nitida laccase)
# [2] = test system: T2, SbL (Steccherinum bourdotii laccase); test: as above; assay type: biochemical; details: 0.1 M citrate-phosphate buffer pH 4.5, 25 °C; read-out: Steccherinaceae group / SbL
# T2 construct: peptides most similar to S. murashkinskyi laccase 2 / A. faginea laccase A
# Text: oxygen consumption, Clark-type electrode, non-linear fit on SbL (Steccherinum bourdotii laccase)
# [3] = test system: JnL (Junghuhnia nitida laccase); details: read-out: Steccherinaceae group / JnL; 0.1 M McIlvaine buffer pH 4.5, 25 °C
# [4] = test system: SbL (Steccherinum bourdotii laccase); details: read-out: Steccherinaceae group / JnL; 0.1 M McIlvaine buffer pH 4.5, 25 °C
# [5] = test system: T2, SbL (Steccherinum bourdotii laccase); test: spectrophotometric oxidation, […] nm, non-linear fit; assay type: biochemical; details: 0.1 M McIlvaine buffer pH 4.5, 25 °C; read-out: Steccherinaceae group / SbL
# [6] = test system: T1, JnL (Junghuhnia nitida laccase); test: spectrophotometric oxidation, […] nm, non-linear fit; assay type: biochemical; details: 0.1 M McIlvaine buffer pH 4.5, 25 °C; read-out: Steccherinaceae group / JnL
# [7] = test system: T2, SbL (Steccherinum bourdotii laccase); test: spectrophotometric oxidation, […] nm, non-linear fit; assay type: biochemical; details: 0.1 M McIlvaine buffer pH 4.5, 25 °C; read-out: Steccherinaceae group / SbL; remark: listed apart in the source
# [8] = test system: JnL (Junghuhnia nitida laccase); details: read-out: Steccherinaceae group / JnL; 0.1 M McIlvaine buffer pH 4.5, 25 °C; remark: listed apart in the source
# [9] = test system: T1, JnL (Junghuhnia nitida laccase); test: spectrophotometric oxidation, […] nm, non-linear fit; assay type: biochemical; details: 0.1 M McIlvaine buffer pH 4.5, 25 °C; read-out: Steccherinaceae group / JnL; remark: listed apart in the source
# [10] = test system: T2, SbL (Steccherinum bourdotii laccase); test: spectrophotometric oxidation, […] nm, non-linear fit; assay type: biochemical; details: 0.1 M McIlvaine buffer pH 4.5, 25 °C; read-out: Steccherinaceae group / SbL; remark: listed apart in the source
# [11] = test system: T2, SbL (Steccherinum bourdotii laccase); test: spectrophotometric oxidation, […] nm, non-linear fit; assay type: biochemical; details: 0.1 M McIlvaine buffer pH 4.5, 25 °C; read-out: Steccherinaceae group / SbL; remark: listed apart in the source
# [12] = test system: T1, JnL (Junghuhnia nitida laccase); test: spectrophotometric oxidation, […] nm, non-linear fit; assay type: biochemical; details: 0.1 M McIlvaine buffer pH 4.5, 25 °C; read-out: Steccherinaceae group / JnL; remark: listed apart in the source
# [13] = substrate: COc1cc(/C=C/C(=O)O)cc(OC)c1O; test: purified protein; assay type: biochemical, Cerrena caperata; details: 0.1 M McIlvaine buffer pH 4.5, 25 °C
# [14] = substrate: COc1cc(C=NN=Cc2cc(OC)c(O)c(OC)c2)cc(OC)c1O; test: purified protein; assay type: biochemical, Cerrena caperata; details: 0.1 M McIlvaine buffer pH 4.5, 25 °C
# [15] = substrate: COc1cc(/C=C/C(=O)O)ccc1O; test: purified protein; details: 0.1 M McIlvaine buffer pH 4.5, 25 °C
# [16] = substrate: COc1ccccc1O; test: purified protein, by the assay type; parameters: Laccase substrate oxidation kinetics, spectrophotometric initial rates, 25 °C, McIlvaine buffer pH 4.5; details: 25.0 °C
# Experimental: (§1) Kinetic constants were measured spectrophotometrically using a PerkinElmer Lambda 35 spectrophotometer (USA) at 25°C. […] 10 μl of enzyme solution at a concentration of 1 mg·ml^-1 (50 mM potassium phosphate buffer pH 6.5) was added to 2 ml substrate solution in 0.1 M McIlvaine buffer, pH 4.5. The reaction rate was measured by monitoring of the absorbance change during 3 min. […] It is interesting that syringyl-type substrates like 2,6-DMP, sinapic acid and syringaldazine were better in terms of Km and kcat/Km values for JnL and SbL compared to CcL and ThL.
# [17] = substrate: O=C(O)c1cc(O)c(O)c(O)c1; test: purified protein, by the assay type; parameters: Laccase substrate oxidation kinetics, spectrophotometric initial rates, 25 °C, McIlvaine buffer pH 4.5; details: 25.0 °C
# Experimental: as §1
# [18] = substrate: COc1cccc(OC)c1O; test: purified protein, by the assay type; parameters: Laccase substrate oxidation kinetics, spectrophotometric initial rates, 25 °C, McIlvaine buffer pH 4.5; details: 25.0 °C
# Experimental: as §1
# [19] = substrate: Oc1ccccc1O; test: purified protein, by the assay type; parameters: Laccase substrate oxidation kinetics, spectrophotometric initial rates, 25 °C, McIlvaine buffer pH 4.5; details: 25.0 °C
# Experimental: as §1
# [20] = substrate: COc1cc([C@@H]2OC[C@@H]3[C@H]2CO[C@H]3c2ccc(O)c(OC)c2)ccc1O; test: oxygen consumption, Clark-type electrode, non-linear fit; assay type: biochemical, Trametes hirsuta; details: 0.1 M citrate-phosphate buffer pH 4.5, 25 °C
# Text: oxygen consumption, Clark-type electrode, non-linear fit on ThL (Trametes hirsuta laccase)
# [21] = substrate: COc1cc(/C=C/C(=O)O)cc(OC)c1O; test: purified protein; assay type: biochemical, Trametes hirsuta; details: 0.1 M McIlvaine buffer pH 4.5, 25 °C
# [22] = substrate: COc1cccc(OC)c1O; test: purified protein; assay type: biochemical, Trametes hirsuta; details: 0.1 M McIlvaine buffer pH 4.5, 25 °C
# [23] = substrate: COc1cc(/C=C/C(=O)O)ccc1O; test: purified protein, by the assay type; parameters: Laccase substrate oxidation kinetics, spectrophotometric initial rates, 25 °C, McIlvaine buffer pH 4.5; details: 25.0 °C
# Experimental: as §1
# [24] = substrate: COc1cc(C=NN=Cc2cc(OC)c(O)c(OC)c2)cc(OC)c1O; test: purified protein, by the assay type; parameters: Laccase substrate oxidation kinetics, spectrophotometric initial rates, 25 °C, McIlvaine buffer pH 4.5; details: 25.0 °C
# Experimental: as §1
molecule,measurement,setting,value
COc1cc([C@@H]2OC[C@@H]3[C@H]2CO[C@H]3c2ccc(O)c(OC)c2)ccc1O [Pinoresinol],Km,[1],89 ± 12 µM
same,Km,[2],149 ± 22 µM
CCn1c(=NN=c2sc3cc(S(=O)(=O)O)ccc3n2CC)sc2cc(S(=O)(=O)O)ccc21 [ABTS],Km,[3],17 ± 2 µM
same,Km,[4],17 ± 2 µM
"COc1cccc(OC)c1O [2,6-DMP]",Km,[5],8 ± 1 µM
same,Km,[6],7 ± 1 µM
COc1cc(/C=C/C(=O)O)ccc1O [Ferulic acid],Km,[7],19 ± 2 µM
same,Km,[8],19 ± 1 µM
COc1cc(/C=C/C(=O)O)cc(OC)c1O [Sinapic acid],Km,[9],9 ± 1 µM
same,Km,[10],8 ± 1 µM
COc1cc(C=NN=Cc2cc(OC)c(O)c(OC)c2)cc(OC)c1O [Syringaldazine],Km,[11],1 ± 0.3 µM
same,Km,[12],2 ± 0.4 µM
B1,Km,[13],17 ± 2 µM
same,kcat,[13],324 ± 31 s⁻¹
same,kcat/Km,[13],1.91e+07 M⁻¹ s⁻¹
same,Km,[14],5 ± 0.3 µM
same,kcat,[14],122 ± 2 s⁻¹
same,kcat/Km,[14],2.44e+07 M⁻¹ s⁻¹
same,Km,[15],20 ± 2 µM
same,kcat,[15],234 s⁻¹
same,kcat/Km,[15],1.17e+07 M⁻¹ s⁻¹
same,Km,[16],696 µM
same,kcat,[16],165 ± 12 s⁻¹
same,kcat/Km,[16],237000 M⁻¹ s⁻¹
same,Km,[17],129 µM
same,kcat,[17],55 ± 2 s⁻¹
same,kcat/Km,[17],434000 M⁻¹ s⁻¹
same,Km,[18],65 µM
same,kcat,[18],121 ± 8 s⁻¹
same,kcat/Km,[18],1.86e+06 M⁻¹ s⁻¹
same,Km,[19],815 µM
same,kcat,[19],269 ± 6 s⁻¹
same,kcat/Km,[19],330000 M⁻¹ s⁻¹
B2,Km,[20],61 ± 8 µM
same,kcat,[20],73 ± 3 s⁻¹
same,kcat/Km,[20],1.2e+06 M⁻¹ s⁻¹
same,Km,[21],13 ± 1 µM
same,kcat,[21],317 ± 23 s⁻¹
same,kcat/Km,[21],2.44e+07 M⁻¹ s⁻¹
same,Km,[22],24 ± 2 µM
same,kcat,[22],128 ± 11 s⁻¹
same,kcat/Km,[22],5.33e+06 M⁻¹ s⁻¹
same,Km,[16],173 µM
same,kcat,[16],162 ± 10 s⁻¹
same,kcat/Km,[16],976000 M⁻¹ s⁻¹
same,Km,[17],223 µM
same,kcat,[17],58 ± 3 s⁻¹
same,kcat/Km,[17],260000 M⁻¹ s⁻¹
same,Km,[23],28 µM
same,kcat,[23],270 ± 25 s⁻¹
same,kcat/Km,[23],9.64e+06 M⁻¹ s⁻¹
same,Km,[19],183 µM
same,kcat,[19],302 ± 27 s⁻¹
same,kcat/Km,[19],1.65e+06 M⁻¹ s⁻¹
same,Km,[24],34 µM
same,kcat,[24],131 ± 10 s⁻¹
same,kcat/Km,[24],3.85e+06 M⁻¹ s⁻¹
